Measured values: US9051581B2, “Defense peptides against fungal infection and method of their use” (The Curators of the University of Missouri, priority 2010, dated 2015)

B1: ZmCKX1-Sp2: peptide Sp2 fused to the C-terminus of the scaffold protein ZmCKX1, expressed in Pichia pastoris (protein)
chain: LAAGTPALGDDRGRPWPASLAALALDGKLRTDSNATAAASTDFGNITSALPAAVLYPSSTGDLVALLSAANSTPGWPYTIAFRGRGHSLMGQAFAPGGVVVNMASLGDAAAPPRINVSADGRYVDAGGEQVWIDVLRASLARGVAPRSWNDYLYLTVGGTLSNAGISGQAFRHGPQISNVLEMDVITGHGEMVTCSKQLNADLFDAVLGGLGQFGVITRARIAVEPAPARARWVRFVYTDFAAFSADQERLTAPRPGGGGASFGPMSYVEGSVFVNQSLATDLANTGFFTDADVARIVALAGERNATTVYSIEATLNYDNATAAAAAVDQELASVLGTLSYVEGFAFQRDVAYAAFLDRVHGEEVALNKLGLWRVPHPWLNMFVPRSRIADFDRGVFKGILQGTDIVGPLIVYPLNKSMWDDGMSAATPSEDVFYAVSLLFSSVAPNDLARLQEQNRRILRFCDLAGIQYKTYLARHTDRSDWVRHFGAAKWNRFVEMKNKYDPKRLLSPGQDIFNMLESHAWPPRAI
B2: ZmCKX1-Sp39: peptide Sp39 fused to the C-terminus of the scaffold protein ZmCKX1, expressed in Pichia pastoris (protein)
chain: LAAGTPALGDDRGRPWPASLAALALDGKLRTDSNATAAASTDFGNITSALPAAVLYPSSTGDLVALLSAANSTPGWPYTIAFRGRGHSLMGQAFAPGGVVVNMASLGDAAAPPRINVSADGRYVDAGGEQVWIDVLRASLARGVAPRSWNDYLYLTVGGTLSNAGISGQAFRHGPQISNVLEMDVITGHGEMVTCSKQLNADLFDAVLGGLGQFGVITRARIAVEPAPARARWVRFVYTDFAAFSADQERLTAPRPGGGGASFGPMSYVEGSVFVNQSLATDLANTGFFTDADVARIVALAGERNATTVYSIEATLNYDNATAAAAAVDQELASVLGTLSYVEGFAFQRDVAYAAFLDRVHGEEVALNKLGLWRVPHPWLNMFVPRSRIADFDRGVFKGILQGTDIVGPLIVYPLNKSMWDDGMSAATPSEDVFYAVSLLFSSVAPNDLARLQEQNRRILRFCDLAGIQYKTYLARHTDRSDWVRHFGAAKWNRFVEMKNKYDPKRLLSPGQDIFNYNKPSFQDHSVI
B3: ZmCKX1: recombinant maize cytokinin oxidase scaffold without peptide insert, control (protein)
chain: LAAGTPALGDDRGRPWPASLAALALDGKLRTDSNATAAASTDFGNITSALPAAVLYPSSTGDLVALLSAANSTPGWPYTIAFRGRGHSLMGQAFAPGGVVVNMASLGDAAAPPRINVSADGRYVDAGGEQVWIDVLRASLARGVAPRSWNDYLYLTVGGTLSNAGISGQAFRHGPQISNVLEMDVITGHGEMVTCSKQLNADLFDAVLGGLGQFGVITRARIAVEPAPARARWVRFVYTDFAAFSADQERLTAPRPGGGGASFGPMSYVEGSVFVNQSLATDLANTGFFTDADVARIVALAGERNATTVYSIEATLNYDNATAAAAAVDQELASVLGTLSYVEGFAFQRDVAYAAFLDRVHGEEVALNKLGLWRVPHPWLNMFVPRSRIADFDRGVFKGILQGTDIVGPLIVYPLNKSMWDDGMSAATPSEDVFYAVSLLFSSVAPNDLARLQEQNRRILRFCDLAGIQYKTYLARHTDRSDWVRHFGAAKWNRFVEMKNKYDPKRLLSPGQDIFN

Key:
[1] = test system: Phakopsora pachyrhizi urediniospores; assay: In vitro inhibition of urediniospore germ tube growth by ZmCKX1-peptides; format: cell-based; details: for reduction of average germ tube length in comparison to water: 58 μM; for reduction of average germ tube length in comparison to water / decrease of germ tube growth in comparison to water: 8 h incubation; for decrease of germ tube growth in comparison to water: 230 μM (highest concentration)
Description: Purified ZmCKX1-Sp2 and ZmCKX1-Sp39 peptides were assessed in vitro for the ability to inhibit urediniospore germination. A 25-μl water droplet containing 300 freshly harvested MOS-2008 urediniospores was incubated on a glass slide in the presence of either ZmCKX1-Sp2 or ZmCKX1-Sp39. Control treatments included urediniospores incubated in water or in the presence of ZmCKX1 alone. Germ tube growth was visualized over time and quantified by image capture and analyses as described previously.

[2] = test system: Phakopsora pachyrhizi urediniospores; assay: Inhibition of soybean leaf infection (rust lesion formation) by ZmCKX1-peptides; format: in vivo; details: 7 days of incubation; 115 μM; water close to 50%
Description: Young, fully expanded leaves were excised from soybean plants (Williams 82) and used for assessment of ZmCKX1-peptide inhibition. Two 10-μl droplets of each ZmCKX1-peptide-urediniospore mixture or control treatment were applied to the upper surface of a single leaf. Each droplet contained 50 urediniospores mixed with either ZmCKX1-Sp2 or ZmCKX1-Sp39 at a final concentration of 115 μM. Control treatments included urediniospores in water or mixed with 115 μM ZmCKX1. Droplet treatments were replicated four times.
Inoculated leaves were incubated for 8 h before rinsing away droplets and drying as described previously. Leaves were transferred to sealed Petri dishes and incubated in a growth chamber at 22° C. and 90% RH, under a 12 h light/dark cycle. The percentage of inoculations that produced rust lesions was recorded at 3 to 4 day intervals for 27 days.

[3] = test system: 20 kDa Phakopsora pachyrhizi protein; assay: Far-western assay for P. pachyrhizi proteins that bind the peptides; format: binding; details: protein from germinated urediniospores; bait protein, ZmCKX1 antibody detection
Description: A far-western assay was used to identify P. pachyrhizi proteins that bind to the disclosed peptides (3, 35). To prepare fungal proteins, MOS-2008 urediniospores were germinated and grown for 4 h. Fungal tissues were ground in liquid nitrogen and suspended in phosphate buffer (pH. 6.5) containing 0.1 M mannitol and Tween-20. Fungal debris was separated from soluble material by centrifugation, and the protein concentration of the soluble fraction was determined. Equal amounts of protein were loaded into the wells of an acrylamide gel, separated by SDS-PAGE, and then transferred to PVDF membrane. The membranes were incubated with a bait protein that consisted of the ZmCKX1 scaffold alone, ZmCKX1-Sp2, or ZmCKX1-Sp39. The unbound bait proteins were washed off of the blot, and the blot was incubated with ZmCKX1 polyclonal antibody (1), followed by a second antibody, anti-rabbit IgG conjugated to alkaline phosphatase (Promega, Madison, Wis.).

Molecule	reduction of average germ tube length in comparison to water [1] [%]	decrease of germ tube growth in comparison to water [1] [%]	inoculations that produced lesions [2] [%]	detection of fungal protein band in far-western blot [3]	germ tube growth inhibition ([1]; all concentrations except 230 μM, 8 h)
B1	52	94	13	specifically interacted with a fungal protein approximately 20 kDa in size	
B2	36	91	16	specifically interacted with a fungal protein approximately 20 kDa in size	
B3		26		absent	less than 10%
